In PMC11372557 one finds stoichiometry N data, which are given here for two substances.

In general, stoichiometry N refers to the number of molecules, sites or subunits per partner or assembly.

The target of test [1] is RbdA-PDE (RbdA 549-797), phosphodiesterase domain of the regulator of biofilm dispersal RbdA (Pseudomonas aeruginosa strain PAO1). Put plainly: SEC; apparent molecular weight on a calibrated size exclusion system; purified proteins in solution.
Test [2] concerns the target RbdA-DGC-PDE (RbdA 376-797), linked cyclase-phosphodiesterase double domain of RbdA (Pseudomonas aeruginosa strain PAO1). Described as above.

For “RbdA-PDE (RbdA 549-797), phosphodiesterase domain of the regulator of biofilm dispersal RbdA (domain or fragment)”, the stoichiometry N in test [1] turned out to be 2. For the substance “RbdA-DGC-PDE (RbdA 376-797), linked cyclase-phosphodiesterase double domain of RbdA (domain or fragment)”, the stoichiometry N in test [2] is 2.
